Reference: PMC12473205, “Characterization of the Soybean GPAT Gene Family Identifies GmGPAT1 as a Key Protein in Salt Stress Tolerance” (Plants, 2025)

Substrate: O=P(O)(O)OC[C@H](O)CO
Assay: purified protein
Format: biochemical, Glycine max
Settings: 0.1 M phosphate buffer pH 7.2, acyl-CoA co-substrate not named, methods text mentions membrane protein, conclusions print 36.5 mmol L^-1

B1: GmGPAT1 (Glycine max) (protein)
chain: MSTTGSSAYHCVAHLPNNKTMFMLSTPPTTTFFATPRVLPFLSSKLSSSSSSSTASSSPCCSSITPKVKSKDNNNCYLVSAKHSPANMSASVSSRTFLNARNEQELLAGIRKEVEAGSLPANVAAGMEEVYNNYKSAVIQSGDPKSKEIVLSNMIALLDRIFLDVTDPFVFQPHHKAKREPFDYYVFGQNYIRPLVDFKNSYVGNMPLFIEMEEKLKQGHNIILMSNHQTEADPAIIALLLETRLPYIAENMTYVAGDRVITDPLSKPFSIGRNLICVYSKKHMLDDPALVEMKRNANIRALKEMAMLLRSGSQIVWIAPSGGRDRPDPHTGEWAPAPFDTSSVDNMRRLVEHSGPPGHVYPLAILCHDIMPPPLKVEKEIGEKRIISFHGTGISVAPALSFSETTATSENPEKAKEVFTKALYDSVTEQYNVLKSAIHGKKGFEASTPVVSLSQSWK
B1 was tested, and the Km was 36.47 mmol/L.
